Source: paper PMC3877283, “Development of Novel Radiogallium-Labeled Bone Imaging Agents Using Oligo-Aspartic Acid Peptides as Carriers” (PLoS ONE, 2013)
Read-outs that look alike come from different tables or passages of the source. Marks after values point to notes of the source that are not given here. Peptide text beside a SMILES is read from it. * marks the point of attachment. DOTA = O=C(O)CN1CCN(CC(=O)O)CCN(CC(=O)*)CCN(CC(=O)O)CC1

Test: Biodistribution experiments in mice with pretreatment of alendronate (20 mg/kg)
Format: in vivo, ddY mice
Settings: for Radioactivity in Bone (Femur): Bone (complete left femur); for Radioactivity in Stomach: Stomach (footnote b)
Experimental: Experiments with animals were conducted in strict accordance with the Guidelines for the Care and Use of Laboratory Animals of Kanazawa University. The animal experimental protocols used were approved by the Committee on Animal Experimentation of Kanazawa University (Permit Number: AP-132633). Biodistribution experiments were performed after an intravenous administration of each diluted tracer solution (37 kBq/100 µL) to 6-week-old male ddY mice (27–32 g, Japan SLC, Inc., Hamamatsu, Japan). To investigate the effect of an excess amount of bisphosphonate on biodistribution, alendronate (20 mg/kg) was intravenously administered to mice 1 minute before the intravenous injection of ^67Ga-DOTA-(Asp)14 or ^67Ga-DOTA-Bn-SCN-HBP. Four to six mice each were sacrificed by decapitation at 10, 60, and 180 minutes post-injection. Tissues of interest were removed and weighed. Complete left femurs were isolated as representative bone samples, radioactivity was determined using an auto well gamma counter, and counts were corrected for background radiation and physical decay during counting.

[1] = 10 min after i.v. administration, alendronate 20 mg/kg i.v. 1 minute before, male ddY mice, mean (SD) for five or six animals
[2] = 60 min (1 h) after i.v. administration, alendronate 20 mg/kg i.v. 1 minute before, male ddY mice, mean (SD) for five or six animals
[3] = 180 min (3 h) after i.v. administration, alendronate 20 mg/kg i.v. 1 minute before, male ddY mice, mean (SD) for five or six animals

SMILES: O=C(O)C[C@H](NC(=O)[C@H](CC(=O)O)NC(=O)[C@H](CC(=O)O)NC(=O)[C@H](CC(=O)O)NC(=O)[C@H](CC(=O)O)NC(=O)[C@H](CC(=O)O)NC(=O)[C@H](CC(=O)O)NC(=O)[C@H](CC(=O)O)NC(=O)[C@H](CC(=O)O)NC(=O)[C@H](CC(=O)O)NC(=O)[C@H](CC(=O)O)NC(=O)[C@H](CC(=O)O)NC(=O)[C@H](CC(=O)O)NC(=O)[C@H](CC(=O)O)NC(=O)CN1CCN(CC(=O)O)CCN(CC(=O)O)CCN(CC(=O)O)CC1)C(=O)O [67Ga-DOTA-(Asp)14, metal not drawn] ({DOTA}-DDDDDDDDDDDDDD-OH)
- F/B ratio (Femur:blood ratio) [1]: 4.50 (0.63) ^**
- F/B ratio (Femur:blood ratio) [2]: 52.96 (17.28) ^**
- F/B ratio (Femur:blood ratio) [3]: 229.73 (67.08) ^**
- Radioactivity in Blood (Blood, 60 min (1 h) after i.v. administration, alendronate 20 mg/kg i.v. 1 minute before, male ddY mice, mean (SD) for five or six animals): 0.23 (0.05) ^** % injected dose
- Radioactivity in Blood (Blood, 180 min (3 h) after i.v. administration, alendronate 20 mg/kg i.v. 1 minute before, male ddY mice, mean (SD) for five or six animals): 0.06 (0.02) ^** % injected dose
- Radioactivity in Bone (Femur) [1]: 8.59 (0.55) ^** % injected dose
- Radioactivity in Bone (Femur) [2]: 11.81 (1.95) % injected dose
- Radioactivity in Bone (Femur) [3]: 12.88 (2.30) % injected dose
- Radioactivity in Brain [1]: 0.05 (0.01) % injected dose
- Radioactivity in Brain [2]: 0.02 (0.00) ^* % injected dose
- Radioactivity in Brain [3]: 0.01 (0.00) % injected dose
- Radioactivity in Heart (Heart, 60 min (1 h) after i.v. administration, alendronate 20 mg/kg i.v. 1 minute before, male ddY mice, mean (SD) for five or six animals): 0.24 (0.08) ^** % injected dose
- Radioactivity in Heart (Heart, 180 min (3 h) after i.v. administration, alendronate 20 mg/kg i.v. 1 minute before, male ddY mice, mean (SD) for five or six animals): 0.15 (0.07) ^** % injected dose
- Radioactivity in Kidney (Kidney, 60 min (1 h) after i.v. administration, alendronate 20 mg/kg i.v. 1 minute before, male ddY mice, mean (SD) for five or six animals): 3.28 (0.82) ^** % injected dose
- Radioactivity in Kidney (Kidney, 180 min (3 h) after i.v. administration, alendronate 20 mg/kg i.v. 1 minute before, male ddY mice, mean (SD) for five or six animals): 3.34 (0.92) ^** % injected dose
- Radioactivity in Large-intestine [1]: 0.40 (0.08) ^* % injected dose
- Radioactivity in Large-intestine [2]: 0.08 (0.01) ^** % injected dose
- Radioactivity in Large-intestine [3]: 0.33 (0.07) ^** % injected dose
- Radioactivity in Liver (Liver, 60 min (1 h) after i.v. administration, alendronate 20 mg/kg i.v. 1 minute before, male ddY mice, mean (SD) for five or six animals): 1.39 (0.29) ^** % injected dose
- Radioactivity in Liver (Liver, 180 min (3 h) after i.v. administration, alendronate 20 mg/kg i.v. 1 minute before, male ddY mice, mean (SD) for five or six animals): 1.27 (0.72) ^** % injected dose
- Radioactivity in Lung (Lung, 180 min (3 h) after i.v. administration, alendronate 20 mg/kg i.v. 1 minute before, male ddY mice, mean (SD) for five or six animals): 2.49 (1.78) ^* % injected dose
- Radioactivity in Muscle (Muscle, 60 min (1 h) after i.v. administration, alendronate 20 mg/kg i.v. 1 minute before, male ddY mice, mean (SD) for five or six animals): 0.11 (0.07) % injected dose
- Radioactivity in Muscle (Muscle, 180 min (3 h) after i.v. administration, alendronate 20 mg/kg i.v. 1 minute before, male ddY mice, mean (SD) for five or six animals): 0.05 (0.02) % injected dose
- Radioactivity in Pancreas [1]: 0.72 (0.12) ^** % injected dose
- Radioactivity in Pancreas [2]: 0.15 (0.02) ^** % injected dose
- Radioactivity in Pancreas [3]: 0.12 (0.07) ^* % injected dose
- Radioactivity in Small-intestine [1]: 0.53 (0.09) ^* % injected dose
- Radioactivity in Small-intestine [2]: 0.22 (0.05) ^** % injected dose
- Radioactivity in Small-intestine [3]: 0.29 (0.12) ^** % injected dose
- Radioactivity in Spleen (Spleen, 60 min (1 h) after i.v. administration, alendronate 20 mg/kg i.v. 1 minute before, male ddY mice, mean (SD) for five or six animals): 1.03 (0.35) ^** % injected dose
- Radioactivity in Spleen (Spleen, 180 min (3 h) after i.v. administration, alendronate 20 mg/kg i.v. 1 minute before, male ddY mice, mean (SD) for five or six animals): 0.89 (0.59) ^* % injected dose
- Radioactivity in Stomach [1]: 0.36 (0.09) ^* % injected dose
- Radioactivity in Stomach [2]: 0.15 (0.12) % injected dose
- Radioactivity in Stomach [3]: 0.11 (0.04) ^** % injected dose
- effect of alendronate pretreatment on accumulation in bone (in words) (alendronate 20 mg/kg i.v. 1 minute before tracer, mice): comparatively little effect
- tissue uptake dose at 10 min (male, ddY, mouse, in vivo, iv, total radioactivity, Blood, 10 min after i.v. administration, alendronate 20 mg/kg i.v. 1 minute before, male ddY mice, mean (SD) for five or six animals, read-out: Radioactivity in Blood): 1.94 %ID
- tissue uptake dose at 10 min (male, ddY, mouse, in vivo, iv, total radioactivity, Heart, 10 min after i.v. administration, alendronate 20 mg/kg i.v. 1 minute before, male ddY mice, mean (SD) for five or six animals, read-out: Radioactivity in Heart): 0.88 %ID
- tissue uptake dose at 10 min (male, ddY, mouse, in vivo, iv, total radioactivity, Kidney, 10 min after i.v. administration, alendronate 20 mg/kg i.v. 1 minute before, male ddY mice, mean (SD) for five or six animals, read-out: Radioactivity in Kidney): 16.7 %ID
- tissue uptake dose at 10 min (male, ddY, mouse, in vivo, iv, total radioactivity, Liver, 10 min after i.v. administration, alendronate 20 mg/kg i.v. 1 minute before, male ddY mice, mean (SD) for five or six animals, read-out: Radioactivity in Liver): 2.2 %ID
- tissue uptake dose at 10 min (male, ddY, mouse, in vivo, iv, total radioactivity, Lung, 10 min after i.v. administration, alendronate 20 mg/kg i.v. 1 minute before, male ddY mice, mean (SD) for five or six animals, read-out: Radioactivity in Lung): 5.86 %ID
- tissue uptake dose at 1 h (male, ddY, mouse, in vivo, iv, total radioactivity, Lung, 60 min (1 h) after i.v. administration, alendronate 20 mg/kg i.v. 1 minute before, male ddY mice, mean (SD) for five or six animals): 4.07 %ID
- tissue uptake dose at 10 min (male, ddY, mouse, in vivo, iv, total radioactivity, Muscle, 10 min after i.v. administration, alendronate 20 mg/kg i.v. 1 minute before, male ddY mice, mean (SD) for five or six animals, read-out: Radioactivity in Muscle): 0.53 %ID
- tissue uptake dose at 10 min (male, ddY, mouse, in vivo, iv, total radioactivity, Spleen, 10 min after i.v. administration, alendronate 20 mg/kg i.v. 1 minute before, male ddY mice, mean (SD) for five or six animals, read-out: Radioactivity in Spleen): 1.86 %ID
